Data set [1] addresses T1, BfCASDH (Bacteroides fragilis, UniProt I9VY56).
T1 construct: gene HMPREF1080_01141; full length (397 residues modelled per chain), N-terminal hexahistidine tag kept, pET-28b, E. coli BL21 (DE3)
T1 sequence (I9VY56 1-397): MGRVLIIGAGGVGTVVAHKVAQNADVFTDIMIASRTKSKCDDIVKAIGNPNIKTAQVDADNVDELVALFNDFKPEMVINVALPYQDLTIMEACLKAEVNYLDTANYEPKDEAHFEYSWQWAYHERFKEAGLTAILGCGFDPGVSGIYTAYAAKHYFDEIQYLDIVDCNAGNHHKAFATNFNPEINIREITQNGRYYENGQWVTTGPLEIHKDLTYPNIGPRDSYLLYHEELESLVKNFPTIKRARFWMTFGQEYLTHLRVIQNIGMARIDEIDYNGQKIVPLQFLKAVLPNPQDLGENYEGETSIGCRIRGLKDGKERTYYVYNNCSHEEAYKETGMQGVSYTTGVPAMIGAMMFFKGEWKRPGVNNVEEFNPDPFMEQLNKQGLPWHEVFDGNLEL
As to the kind of experiment: intrinsic tryptophan fluorescence quenching (ex […] nm, em […] nm), sigmoidal fit. It is filed as binding.

The target of data set [2] is Bacteroides fragilis carboxyspermidine dehydrogenase (Bacteroides fragilis). Put plainly: SEC; HiLoad 16/600 Superdex 200, 25 mM Tris pH 8; 100 ul of 10 mg/ml (BfCASDH) or 5 mg/ml (ClCASDH) injected.
Data set [3] concerns the target Clostridium leptum carboxyspermidine dehydrogenase (Clostridium leptum). The description is as above.
Substrate in data set [4]: NC(=O)C1=CN([C@@H]2O[C@H](COP(=O)(O)OP(=O)(O)OC[C@H]3O[C@@H](n4cnc5c(N)ncnc54)[C@H](OP(=O)(O)O)[C@@H]3O)[C@@H](O)[C@H]2O)C=CC1
As to the kind of experiment: purified protein. In kind it is biochemical, [Clostridium] leptum. The following applies: apparent, 2.5 mM ASA (subsaturating), 20 mM putrescine, 25 mM Tris pH 7.5, varied: cofactor.

Substrate in data set [5]: NCCCCN
Put plainly: purified protein. The following applies: apparent, 2.5 mM ASA (subsaturating), 150 uM NADPH, 25 mM Tris pH 7.5. It is filed as biochemical, [Clostridium] leptum.

Substrate in data set [6]: NCCCN
As to the kind of experiment: purified protein. In kind it is biochemical, [Clostridium] leptum. The settings on record: apparent, 2.5 mM ASA (subsaturating), 150 uM NADPH, 25 mM Tris pH 7.5.

Substrate in data set [7]: NC(=O)C1=CN([C@@H]2O[C@H](COP(=O)(O)OP(=O)(O)OC[C@H]3O[C@@H](n4cnc5c(N)ncnc54)[C@H](OP(=O)(O)O)[C@@H]3O)[C@@H](O)[C@H]2O)C=CC1
Put plainly: purified protein. It is filed as biochemical, Bacteroides fragilis. The following applies: apparent, 2.5 mM ASA (subsaturating), 20 mM putrescine, 25 mM potassium phosphate pH 7.5, varied: cofactor.

Substrate in data set [8]: NCCCCN
As to the kind of experiment: purified protein. In kind it is biochemical, Bacteroides fragilis. The settings on record: apparent, from Hill equation (half-saturation), 2.5 mM ASA (subsaturating), 150 uM NADPH, 25 mM potassium phosphate pH 7.5.

Substrate in data set [9]: NCCCN
Put plainly: purified protein. In kind it is biochemical, Bacteroides fragilis. The settings on record: apparent, from Hill equation (half-saturation), 2.5 mM ASA (subsaturating), 150 uM NADPH, 25 mM potassium phosphate pH 7.5.

Substrate in data set [10]: N[C@@H](CC=O)C(=O)O
As to the kind of experiment: purified protein. In kind it is biochemical, Bacteroides fragilis. The settings on record: apparent, from Hill equation (half-saturation), 20 mM putrescine, 150 uM NADPH, 25 mM potassium phosphate pH 7.5, substrate inhibition above 2.5 mM.

What is called Kd is the free concentration of one partner at which half of the binding sites on the other are occupied at equilibrium, for simple one-to-one binding. A higher Kd goes with a looser complex. One may read the stoichiometry N as a count of units in the complex or per binding partner. As usually defined, the Km is the substrate concentration at which the rate is half of its maximum. As usually defined, the kcat is the number of substrate molecules converted per active site and unit of time at saturation. The term kcat/Km denotes the second-order rate constant that governs catalysis at low substrate concentration.

For the molecule `NCCCCN` [putrescine], the Kd in data set [1] was found to be 11 ± 1 mM.

`NCCCN` [DAP]: in [1], the dissociation constant Kd was found to be 15 ± 2 mM. The Kd values of the last two molecules are within 1.5-fold of each other.

On to “Bacteroides fragilis carboxyspermidine dehydrogenase (enzyme)”, for which, in [2], the stoichiometry N was determined as 2.

For “Clostridium leptum carboxyspermidine dehydrogenase (enzyme)”, the stoichiometry N in [3] was 2.

B1: ClCASDH ([Clostridium] leptum DSM 753) (protein)
chain: MGKALIIGCGGVASVAIHKCCQNSGVFEEICIASRTKSKCDALKEKLSGGKTKITTAQVDANSVDELTALINQVKPDVVLNLALPYQDLTIMEACLAAKVNYVDTANYEPEDTAKFEYSWQWAYRKKFEDAGITALLGSGFDPGVTGVFSAYAQKHYFDEINYIDILDCNAGDHGYPFATNFNPEINIREVSAKGSYWEDGHWVETEPMEIKRVYNFPEIGDKDMYLLHHEELESLALNIKGIKRIRFFMTFGQSYLTHLKCLEDVGMTSIEPIEFQGQQIVPLQFLKAVLPDPSSLGPRTKGKTNIGCIFQGKKDGKDKTYYVYNVCDHQECYKEVGSQAVAYTTGVPAMIGAMMLMTGVWNKPGVHNIEEFDPDPFMDALNKWGLPWKESFSPELVD
notes: full length, N-terminal hexahistidine tag, pET-28b, E. coli BL21 (DE3)
Turning to B1, in data set [4], the Km is 16 ± 2 µM, the kcat was found to be 0.22 ± 0.02 s⁻¹ and the kcat/Km was 13800 ± 900 M⁻¹ s⁻¹. For the same molecule, in data set [5], the Km was 5000 ± 600 µM, the kcat came to 0.37 ± 0.01 s⁻¹ and the kcat/Km worked out at 74 ± 10 M⁻¹ s⁻¹. Further, in [6], the Km was 6900 ± 1100 µM, the kcat is 0.49 ± 0.03 s⁻¹ and the specificity constant (kcat/Km) was determined as 71 ± 12 M⁻¹ s⁻¹.

B2: BfCASDH (Bacteroides fragilis CL05T12C13) (protein)
chain: T1 sequence (I9VY56 1-397)
notes: full length (397 residues modelled per chain), N-terminal hexahistidine tag kept, pET-28b, E. coli BL21 (DE3)
B2: the Km in [7] came to 57 ± 3 µM. For the same molecule, the kcat is 0.39 ± 0.05 s⁻¹ in data set [7], 0.41 ± 0.02 s⁻¹ in [8], 0.34 ± 0.03 s⁻¹ in data set [9] and 0.64 ± 0.02 s⁻¹ in data set [10]. Moreover, the kcat/Km came out at 6700 ± 200 M⁻¹ s⁻¹ in data set [7], 96 ± 7 M⁻¹ s⁻¹ in [8], 17 ± 3 M⁻¹ s⁻¹ in data set [9] and 230 ± 15 M⁻¹ s⁻¹ in data set [10]. In addition, the K0.5 in data set [8] stood at 4.2 ± 0.3 mM; in data set [9], 19.7 ± 3.6 mM; in data set [10], 2.7 ± 0.1 mM.

Source of the values: article PMC10413350, “Kinetic and structural characterization of carboxyspermidine dehydrogenase of polyamine biosynthesis” (The Journal of Biological Chemistry, 2023).
